Experimental data: patent US20200407452A1 (published 2020)

Tests used:
[1] = molecular target: T1, native human MET on living cells (human, UniProt P08581 25-1390); assay: FACS, A549 cells
T1 construct: whole, on cells; also called Human cells (A549); A549

[2] = molecular target: T2, native mouse MET on living cells (mouse, UniProt P16056 25-1379); assay: FACS, MLP29 cells
T2 construct: whole, on cells; also called Mouse cells (MLP29); MLP29

[3] = molecular target: T1, native human MET on living cells; assay: cell-based or functional assay
[4] = molecular target: T2, native mouse MET on living cells; assay: cell-based or functional assay
[5] = molecular target: T1, native human MET on living cells; assay: cell-based or functional assay; remark: listed apart in the source
[6] = molecular target: T2, native mouse MET on living cells; assay: cell-based or functional assay; remark: listed apart in the source
human MET ECD [7] = molecular target: T3, human MET ECD (human, UniProt P08581 25-932); assay: ELISA, hMET ECD coated
T3 construct: range 1-932; recombinant; range as printed includes the signal peptide; also called hMET; hMET ECD

mouse MET ECD [8] = molecular target: T4, mouse MET ECD (mouse, UniProt P16056 25-931); assay: ELISA, mMET ECD coated
T4 construct: range 1-931; recombinant; range as printed includes the signal peptide; also called mMET; mMET ECD

[9] = molecular target: T1, native human MET on living cells; assay: cell-based or functional assay; remark: listed apart in the source
[10] = molecular target: T2, native mouse MET on living cells; assay: cell-based or functional assay; remark: listed apart in the source
[11] = molecular target: human MET ECD mutant A (mutations 1, 2, 3) (human) (UniProt P08581); assay: ELISA, WT or mutant hMET ECD coated
[12] = molecular target: human MET ECD mutant D (mutations 1, 2) (human) (UniProt P08581); assay: ELISA, WT or mutant hMET ECD coated
[13] = molecular target: human MET ECD mutant E (mutations 2, 3, 4) (human) (UniProt P08581); assay: ELISA, WT or mutant hMET ECD coated
[14] = molecular target: human MET ECD mutant H (mutations 2, 4) (human) (UniProt P08581); assay: ELISA, WT or mutant hMET ECD coated
human MET ECD [15] = molecular target: T3, human MET ECD; assay: ELISA, MET ECD coated, mAb 0-20 nM
Procedure: (§1) Production (by transient transfection of mammalian cells) and purification (by protein A affinity chromatography) of the resulting chimeric llama-human IgG1 molecules was outsourced to U-protein Express. Binding of chimeric mAbs to MET was determined by ELISA using hMET or mMET ECD in solid phase and increasing concentrations of antibodies (0-20 nM) in solution. […] Binding capacity (EMAX) varied from antibody to antibody, possibly due to partial epitope exposure in the immobilized antigen, but was similar in the human and mouse setting.

mouse MET ECD [16] = molecular target: T4, mouse MET ECD; assay: ELISA, MET ECD coated, mAb 0-20 nM
Procedure: as §1

human MET ECD [17] = molecular target: T3, human MET ECD; assay: ELISA, WT or mutant hMET ECD coated
Procedure: Using human MET as a template, we mutagenized each of these residues in different permutations, generating a series of MET mutants that are fully human except for specific residues, which are llama. Next, we tested the affinity of selected SEMA-binding mAbs (71D6, 71C3, 71D4, 71A3, 71G2) and PSI-binding mAbs (76H10 and 71G3) for these MET mutants by ELISA. To this end, the various MET proteins were immobilized in solid phase (100 ng/well in a 96-well plate) and then exposed to increasing concentrations of antibodies (0-50 nM) solution. […] Wild-type human MET was used as positive control.
TABLE 24 The epitopes of MET responsible for agonistic antibody binding represent residues conserved among H. sapiens, M. musculus, R. norvegicus, M. fascicularis but not among the same species and L. glama. The relevance of residues conserved among human, mouse, rat, cynomolgus monkey but not llama MET for binding to agonistic mAbs was tested by ELISA. Wild-type (WT) or mutant (MT) human MET ECD was immobilized in solid phase and exposed to increasing concentrations of mAbs in solution. […] All binding values were normalized to the WT protein and are expressed as % binding (EMAX) compared to WT MET.

EMAX [1]: 115 % CTR
EMAX [2]: 120 % CTR
phospho-MET ELISA EMAX, A549 cells [3]: 102 % HGF activity
phospho-MET ELISA EMAX, MLP29 cells [4]: 115 % HGF activity
protection from staurosporine-induced apoptosis EC50, MCF10A cells [5]: 1.48 nM
protection from staurosporine-induced apoptosis EMAX, MCF10A cells [5]: 66.8%
protection from staurosporine-induced apoptosis EC50, MLP29 cells [6]: 0.95 nM
protection from staurosporine-induced apoptosis EMAX, MLP29 cells [6]: 68.3%
EC50 (human MET ECD [7]): 0.032 nM
EC50 (mouse MET ECD [8]): 0.036 nM
A549 MET act. (EMAX, % HGF) [9]: 104 % HGF
LOC br. m. (branch n.) [9]: 32.7 branches per spheroid
MLP29 MET act. (EMAX, % HGF) [10]: 110 % HGF
MLP29 br. m. (branch n.) [10]: 41.3 branches per spheroid
% binding (EMAX) vs WT MET ECD [11]: 103%
% binding (EMAX) vs WT MET ECD [12]: 128%
% binding (EMAX) vs WT MET ECD [13]: 43.6%
% binding (EMAX) vs WT MET ECD [14]: 38.6%
EMAX (human MET ECD [15]): 2.08 OD450 AU
EMAX (mouse MET ECD [16]): 2.01 OD450 AU
% binding (EMAX) vs WT MET ECD (human MET ECD [17]): 100%
B1: 71D6 chimeric llama-human IgG1 mAb (antibody, V domains shown)
VH: ELQLVESGGGLVQPGGSLRLSCAASGFTFSSYGMSWVRQAPGKGLEWVSAINSYGGSTSYADSVKGRFTISRDNAKNTLYLQMNSLKPEDTAVYYCAKEVRADLSRYNDYESYDYWGQGTQVTVSS
VL: QPVLNQPSALSVTLGQTAKITCQGGSLGARYAHWYQQKPGQAPVLVIYDDDSRPSGIPERFSGSSSGGTATLTISGAQAEDEGDYYCQSADSSGSVFGGGTHLTVL
notes: human IgG1 CH1-CH2-CH3 and human CL lambda; also called 71D6 Human IgG1/lambda
